Results taken from patent publication US11994512B2, “Single-cell genomic methods to generate ex vivo cell systems that recapitulate in vivo biology with improved fidelity” (Massachusetts Institute of Technology, priority 2018, dated 2024).

B1: Q9QXV0 (protein, UniProt Q9QXV0 1-258, looked up)
chain: MAGSPLLCGPRAGGVGILVLLLLGLLRLPPTLSARPVKEPRSLSAASAPLVETSTPLRLRRAVPRGEAAGAVQELARALAHLLEAERQERARAEAQEAEDQQARVLAQLLRAWGSPRASDPPLAPDDDPDAPAAQLARALLRARLDPAALAAQLVPAPAAAPRPRPPVYDDGPTGPDVEDAGDETPDVDPELLRYLLGRILTGSSEPEAAPAPRRLRRSVDQDLGPEVPPENVLGALLRVKRLENPSPQAPARRLLPP
modifications: full-length
B2: Q9QXE2 (protein, UniProt Q9QXE2 1-573, looked up)
chain: MDPQGIVKAFPKRKKSHADLSSKALAKIPKREVGEARGWLSSLRAHIMPAGIGRARAELFEKQIIHHGGQVCSAQAPGVTHIVVDEDMDYERALRLLRLPQLPPGAQLVKSTWLSLCLQEGRLTDTEGFSLPMPKRSLDEPQPSKSGQDASAPGTQRDLPRTTLSLSPPHTRAVSPPPTAEKPSRTQAQLSSEDETSDGEGPQVSSADLQALITGHYPTPPEEDGGPDPAPEALDKWVCAQPSSQKATNYNLHITEKLEVLAKAYSVQGDKWRALGYAKAINALKSFHKPVSSYQEACSIPGIGKRMAEKVMEILESGHLRKLDHISDSVPVLELFSNIWGAGTKTAQMWYHQGFRNLEDLQSLGSLTAQQAIGLKHYDDFLDRMPREEAAEIEQTVRISAQAFNPGLLCVACGSYRRGKMTCGDVDVLITHPDGRSHRGIFSCLLDSLRQQGFLTDDLVSQEENGQQQKYLGVCRLPGPGKRHRRLDIIVVPYCEFACALLYFTGSAHFNRSMRALAKTKGMSLSEHALSAAVVRNSQGVKVGPGQVLPTPTEKDVFKHLGLPYREPAERDW
modifications: full-length
B3: Q9JJK5 (protein, UniProt Q9JJK5 1-391, looked up)
chain: MEPEPQPEPVTLLVKSPNQRHRDLELSGDRSWSVSRLKAHLSRVYPERPRPEDQRLIYSGKLLLDHQCLQDLLPKQEKRHVLHLVCNVKNPSKMPETSTKGAESTEQPDNSNQTQHPGDSSSDGLRQREVLRNLSPSGWENISRPEAVQQTFQGLGPGFSGYTTYGWLQLSWFQQIYARQYYMQYLAATAASGTFVPTPSAQEIPVVSTPAPAPIHNQFPAENQPANQNAAAQAVVNPGANQNLRMNAQGGPLVEEDDEINRDWLDWTYSAATFSVFLSILYFYSSLSRFLMVMGATVVMYLHHVGWFPFRQRPVQNFPDDGGPRDAANQDPNNNLQGGMDPEMEDPNRLPPDREVLDPEHTSPSFMSTAWLVFKTFFASLLPEGPPALAN
modifications: full-length
B4: Q9QXD6 (protein, UniProt Q9QXD6 1-338, looked up)
chain: MANHAPFETDISTLTRFVMEQGRKAQGTGELTQLLNSLCTAIKAISSAVRQAGIAQLYGIAGSTNVTGDQVKKLDILSNDLVINMLKSSYATCVLVSEENTNAIIIEPEKRGKYVVCFDPLDGSSNIDCLVSIGTIFGIYRKKSTDEPSEKDALQPGRDLVAAGYALYGSATMLVLAMDCGVNCFMLDPSIGEFIMVDRDVKMKKKGNIYSLNEGYAKDFDPAINEYLQRKKFPPDGSAPYGARYVGSMVADIHRTLVYGGIFLYPANKKSPSGKLRLLYECNPIAYVMEKAGGLATTGDKDILDIVPTEIHQKAPVVMGSSEDVQEFLEIYRKHKAK
modifications: full-length
B5: Q9JMH7 (protein, UniProt Q9JMH7 1-418, looked up)
chain: MEEVPPYSLSSTLFQQEEQSGVTYRIPALLYLPPTHTFLAFAEKRTSVRDEDAACLVLRRGLMKGRSVQWGPQRLLMEATLPGHRTMNPCPVWEKNTGRVYLFFICVRGHVTERCQIVWGKNAARLCFLCSEDAGCSWGEVKDLTEEVIGSEVKRWATFAVGPGHGIQLHSGRLIIPAYAYYVSRWFLCFACSVKPHSLMIYSDDFGVTWHHGKFIEPQVTGECQVAEVAGTAGNPVLYCSARTPSRFRAEAFSTDSGGCFQKPTLNPQLHEPRTGCQGSVVSFRPLKMPNTYQDSIGKGAPATQKCPLLDSPLEVEKGAETPSATWLLYSHPTSKRKRINLGIYYNRNPLEVNCWSRPWILNRGPSGYSDLAVVEEQDLVACLFECGEKNEYERIDFCLFSDHEVLSCEDCTSPSSD
modifications: full-length
B6: Q9JME5 (protein, UniProt Q9JME5 1-1082, looked up)
chain: MSAAPAYSEDKGGSAGPGEPEYGHDPASGGIFSSDYKRHDDLKEMLDTNKDSLKLEAMKRIVAMIARGKNASDLFPAVVKNVACKNIEVKKLVYVYLVRYAEEQQDLALLSISTFQRGLKDPNQLIRASALRVLSSIRVPIIVPIMMLAIKEAASDMSPYVRKTAAHAIPKLYSLDSDQKDQLIEVIEKLLADKTTLVAGSVVMAFEEVCPERIDLIHKNYRKLCNLLIDVEEWGQVVIISMLTRYARTQFLSPTQNESLLEENPEKAFYGSEEDEAKGPGSEEAATAALPARKPYVMDPDHRLLLRNTKPLLQSRSAAVVMAVAQLYFHLAPKAEVGVIAKALVRLLRSHSEVQYVVLQNVATMSIKRRGMFEPYLKSFYIRSTDPTQIKILKLEVLTNLANETNIPTVLREFQTYIRSMDKDFVAATIQAIGRCATNIGRVRDTCLNGLVQLLSNRDELVVAESVVVIKKLLQMQPAQHGEIIKHLAKLTDNIQVPMARASILWLIGEYCEHVPKIAPDVLRKMAKSFTAEEDIVKLQVINLAAKLYLTNSKQTKLLTQYVLSLAKYDQNYDIRDRARFTRQLIVPSEQGGALSRHAKKLFLAPKPAPILESSFKDRDHFQLGSLSHLLNAKATGYQELPDWPEEAPDPSVRNVEVPEWTKCSNREKRKEKEKPFYSDSEGESGPTESADSEPESESESESKSSSGSGSGESSSESDNEEEDEEKGGGSESEQSEEEDEKKKKTKKKKASEGHREGSSSEEGSDSSSSSESEVTSESEEEQVEPASWRKKTPPGSKSAPVAKEISLLDLEDFTPPSVQPVSPPMVVSTSLAADLEGLTLTDSSLVPSLLSPVSSIGRQELLHRVAGEGLSVDYAFSRQPFSGDPHMVSLHIYFSNNSETPIKGLHVGTPKLPAGISIQEFPEIESLAPGESTTTVMGINFCDSTQAANFQLCTQTRQFYVSIQPPVGELMAPVFMSENEFKKEQGKLTGMNEITEKLTLPDTCRSDHMVVQKVTATANLGRVPCGTSDEYRFAGRTLTSGSLVLLTLDARAAGAAQLTVNSEKMVIGTMLVKDVIQALTQ
modifications: full-length

Test system: intracellular proteome of ENR+CD and ENR organoids
Assay: LC-MS/MS TMT proteomics of ENR+CD versus ENR organoids
Type: cell-based, C57BL/6 mice
Settings: for Average logFC: ENR+CD versus ENR organoids, sample pairs in aggregate (n=4, 2 technical replicates from two biological donors); for M1-1 Log2 Median Normalized / M1-2 Log2 Median Normalized / M2-1 Log2 Median Normalized / M2-2 Log2 Median Normalized: protein abundance ratio ENR+CD versus ENR organoids, LC-MS/MS TMT proteomics; for M1-1 Log2 Median Normalized: sample pair M1-1; for M1-2 Log2 Median Normalized: sample pair M1-2; for M2-1 Log2 Median Normalized: sample pair M2-1; for M2-2 Log2 Median Normalized: sample pair M2-2; for change: up = enriched in ENR+CD, down = enriched in ENR, FDR<0.05 and log fold change cut-off

Molecule | Average logFC | M1-1 Log2 Median Normalized | M1-2 Log2 Median Normalized | M2-1 Log2 Median Normalized | M2-2 Log2 Median Normalized | change
B1 | 1.274 | 1.444 | 0.883 | 1.5975 | 1.172 | up
B2 | 1.478 | 0.861 | 1.509 | 1.4485 | 2.093 | up
B3 | 1.444 | 1.863 | 0.766 | 1.1435 | 2.005 | up
B4 | −1.895 | −1.892 | −2.49 | −2.2475 | −0.495 | down
B5 | −1.61 | −1.209 | −1.761 | −1.8685 | −1.601 | down
B6 | −1.256 | −1.059 | −1.31 | −1.1945 | −1.459 | down
